Test results as given in patent publication US20240117005A1 (COUNCIL OF THE QUEENSLAND INSTITUTE OF MEDICAL RESEARCH, published 2024).
Starred links: 1 amine or outer side, 2 acyl side, 3 side chain; linkers in the order of their positions; H or OH if unused. Positions of bridges follow the written chain, without caps; N, C: chain ends. No end group written: not given here. *: point of attachment. TBMB = c1c(C[*:1])cc(C[*:3])cc1C[*:2]; Myristyl = CCCCCCCCCCCCCC*

Legend:
importin-α1 (IMPα1) [1] = molecular target: T1, importin-α1 (IMPα1) (human, UniProt P52292 2-529); test: DUOLINK proximity ligation; IC50 of DL-2-NP against IC50 of naked DL-2 for the PDL1:IMPα1 complex
importin-α1 (IMPα1) [2] = molecular target: T1, importin-α1 (IMPα1); test: DUOLINK proximity ligation in permeabilised MDA-MB-231 cells; loss of the PDL1:IMPα1 complex, DL-2-NP 10 to 0.3 nM
importin-α1 (IMPα1) [3] = molecular target: T1, importin-α1 (IMPα1); test: DUOLINK proximity ligation in permeabilised MDA-MB-231 cells; loss of the PDL1-Ac:IMPα1 complex, DL-2 10 to 0.00975 µM

Binder | fold more potent than DL-2 (importin-α1 (IMPα1) [1]) [fold] | IC50 (importin-α1 (IMPα1) [2]) [nM] | IC50 (importin-α1 (IMPα1) [3]) [nM]
ACLTFIFCRLRKGRCMMDVKK (N-terminal myristyl; cysteines covalently bound to the TBMB scaffold (bicyclic); peptide packaged in a POPC / cholesterol / DSPE-PEG lipid nanoparticle, Same peptide as DL-2, in a different formulation; also called DL-2-NP) [DL-2 nanoparticle (DL-2 bicyclic peptide encapsulated in a lipid nanoparticle)] | ~39 | 1 | 
Myristyl-ACLTFIFCRLRKGRCMMDVKK (linker 2-8-15 via TBMB, also called DL-2-TBMB; DL-2-Batch 1) [DL-2 bicyclic peptide (Myristyl-ACLTFIFCRLRKGRCMMDVKK on TBMB scaffold)] |  |  | 39
